In assay [1] the target is T1, Guanine Nucleotide-Binding Protein Beta 5 (GBB5), rabbit, endogenous (Oryctolagus cuniculus, UniProt Q6PNB6).
T1 construct: expected size 38.7 kDa printed; also called rabbit GBB5; source: endogenous, rabbit retinal homogenate
The assay is described as follows: far-Western, overlay or dot blot; western blot: retinal lysates resolved by SDS-PAGE, on PVDF; probed with 1 μg/mL scFv in PBS for 2 h; anti-Flag-HRP M2, ECL. The note with it: one partner purified.

Assay [2] has as its target T2, Guanine Nucleotide-Binding Protein Beta 5 (GBB5), chicken, endogenous (Gallus gallus, UniProt A0A8V0ZF95).
T2 construct: expected size 38.8 kDa printed; also called chicken homolog; source: endogenous, chicken retina or whole eye homogenate
The assay is described as above. The note with it: one partner purified.

In assay [3] the target is T3, Guanine Nucleotide-Binding Protein Beta 5 (GBB5), mouse, endogenous (Mus musculus, UniProt P62881, strain).
T3 construct: also called mouse GBB5; source: endogenous, mouse retinal homogenate
T3 sequence (P62881 whole entry, looked up, change not shown): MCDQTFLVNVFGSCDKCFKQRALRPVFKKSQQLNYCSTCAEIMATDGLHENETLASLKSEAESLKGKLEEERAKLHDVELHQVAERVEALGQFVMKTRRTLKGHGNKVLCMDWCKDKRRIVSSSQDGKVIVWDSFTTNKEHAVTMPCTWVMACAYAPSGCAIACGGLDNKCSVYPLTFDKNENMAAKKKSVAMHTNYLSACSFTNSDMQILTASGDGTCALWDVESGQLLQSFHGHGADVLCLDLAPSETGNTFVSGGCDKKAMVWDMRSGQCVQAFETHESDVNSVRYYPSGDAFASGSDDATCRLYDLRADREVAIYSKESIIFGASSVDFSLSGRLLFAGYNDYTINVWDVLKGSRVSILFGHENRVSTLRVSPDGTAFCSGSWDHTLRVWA
Described as above. The note with it: one partner purified.

Assay [4] addresses T4, GBB5 peptide (Guanine Nucleotide-Binding Protein Beta 5) (Oryctolagus cuniculus peptide, synthetic, SMILES …).
T4 construct: four amino acid linker, printed in words: Glycine-Serine-Glycine-Serine; also called wild-type peptide; Ctrl; source: synthetic peptide
T4 chain: Biotin-GSGSKLHDVELHQVAERV-NH2
In words: photonic crystal biosensor (SRU Biosystems BIND); biotinylated peptide, 50 ng/well, on streptavidin-coated 96-well biosensor plate, blocked with 5% BSA; scFv in decreasing concentration in 7 wells in elution buffer; overnight end-point change in peak wavelength; dose response curve, EC50 used to estimate Kd. The note with it: both partners purified.

The target of assay [5] is T4, GBB5 peptide (Guanine …). In words: ELISA; peptides at 25 nM on NeutrAvidin-coated plate; scFv at 30 nM, scFv-Fc at 10 nM in PBST; anti-FLAG-HRP, ABTS, 405 nm. The note with it: both partners purified. For orientation: An ELISA detects its analyte on a solid surface through an enzyme-linked reagent.

*: point of attachment. Biotin = O=C1N[C@H]2[C@H](CS[C@H]2CCCCC(=O)*)N1

T1 sequence (Q6PNB6 whole entry): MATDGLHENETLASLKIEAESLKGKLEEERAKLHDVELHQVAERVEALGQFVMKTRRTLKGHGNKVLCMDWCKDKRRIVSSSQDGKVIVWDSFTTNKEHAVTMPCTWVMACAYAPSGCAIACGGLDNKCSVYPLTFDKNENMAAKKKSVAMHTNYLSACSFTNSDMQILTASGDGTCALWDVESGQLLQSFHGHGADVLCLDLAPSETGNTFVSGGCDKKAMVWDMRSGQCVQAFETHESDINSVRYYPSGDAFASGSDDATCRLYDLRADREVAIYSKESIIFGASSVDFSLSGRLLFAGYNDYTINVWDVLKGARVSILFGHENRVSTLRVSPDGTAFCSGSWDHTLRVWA

B1: anti-GBB5-H9 scFv (scFv, V domains shown)
VH: EVQLVQSGGGLVQPGGSLRLSCAASGFTVSSNYMSWVRQAPGKGLEWVSSISSSSSYIYYADSVKGRFTISRDNAKNSLYLQMNSLRAEDTAVYYCARSYPFDYWGQGTLVTVSS
VL: NFMLTQPHSVSESPGKAVTISCTGSSGDVARNYVQWYQQRPGSAPIIVIYEDTQRPSGVPDRFSGSIDSSSNSASLTISGLTTEDEADYYCQSYDGHNVIFGGGTKLTVL
notes: VL of clone H9, from a phage library of human B-cell cDNA; 14 amino acid linker of the library vector between VL and VH; VH of clone H9, from a phage library of human B-cell cDNA; Order VL-linker-VH; also called anti-GBB5-scFv H9; source: E. coli TG-1 (pKP300ΔIIIΔAP, OmpA signal to the periplasm, low phosphate media), purified (IMAC); not shown: FLAG, N-terminal, kept
The EC50 is the concentration that produces a half-maximal response. Take B1: the binding result in assay [1], in assay [2] and in assay [3] was “binds” throughout. Moreover, the EC50 in assay [4] was about 300 nM.

B2: anti-GBB5-H9 scFv-Fc (Fc fusion, human)
VH: B1 VH
VL: B1 VL
notes: VL as in m1 (clone H9); 14 amino acid linker of the library vector between VL and VH; VH as in m1 (clone H9); H9 scFv coding region subcloned upstream of the Fc through NcoI and NotI; order after the scFv: Fc, (His)6, tri-FLAG; Homodimer through disulfide bonds of the Fc; also called Fc format of the H9 clone; bivalent Fc format; source: HEK-293 Freestyle cells, transiently transfected …
As to B2, the “fold ELISA signal against the soluble scFv” value in assay [5] is about 4.5 fold.

Values taken from PMC4406585, “Generating Recombinant Antibodies against Putative Biomarkers of Retinal Injury” (PLoS ONE, 2015).
